B2: bacteriophage φ6 protein P1 (natural protein, UniProt P11126 1-769, looked up)
chain: MFNLKVKDLNGSARGLTQAFAIGELKNQLSVGALQLPLQFTRTFSASMTSELLWEVGKGNIDPVMYARLFFQYAQAGGALSVDELVNQFTEYHQSTACNPEIWRKLTAYITGSSNRAIKADAVGKVPPTAILEQLRTLAPSEHELFHHITTDFVCHVLSPLGFILPDAAYVYRVGRTATYPNFYALVDCVRASDLRRMLTALSSVDSKMLQATFKAKGALAPALISQHLANAATTAFERSRGNFDANAVVSSVLTILGRLWSPSTPKELDPSARLRNTNGIDQLRSNLALFIAYQDMVKQRGRAEVIFSDEELSSTIIPWFIEAMSEVSPFKLRPINETTSYIGQTSAIDHMGQPSHVVVYEDWQFAKEITAFTPVKLANNSNQRFLDVEPGISDRMSATLAPIGNTFAVSAFVKNRTAVYEAVSQRGTVNSNGAEMTLGFPSVVERDYALDRDPMVAIAALRTGIVDESLEARASNDLKRSMFNYYAAVMHYAVAHNPEVVVSEHQGVAAEQGSLYLVWNVRTELRIPVGYNAIEGGSIRTPEPLEAIAYNKPIQPSEVLQAKVLDLANHTTSIHIWPWHEASTEFAYEDAYSVTIRNKRYTAEVKEFELLGLGQRRERVRILKPTVAHAIIQMWYSWFVEDDRTLAAARRTSRDDAEKLAIDGRRMQNAVTLLRKIEMIGTTGIGASAVHLAQSRIVDQMAGRGLIDDSSDLHVGINRHRIRIWAGLAVLQMMGLLSRSEAEALTKVLGDSNALGMVVATTDIDPSL
notes: P1, major shell protein of the bacteriophage φ6 polymerase complex; atomic structure PDB 4K7H was fitted into the capsid map; also called P1 shell; source: self-assembled in vitro into P124 particles; copies: 120

Data set [1] deals with rotavirus triple-layered particle, non-VP4 protein components (rotavirus (strain not stated)) (UniProt P12476). Description: cryo-EM structure; rotavirus triple-layered particles, previously published data set (ref. 15); icosahedral reconstruction, subtraction of non-VP4 components, localized reconstruction and 3D classification of VP4 sub-particles.
Data set [2] concerns the target B2. Nature of the data set: cryo-EM structure; φ6 P124 particles self-assembled in vitro from purified P1, P2 and P4 (molar ratio 120:120:72, 6% PEG 4000, room temperature, 90 min), separated by rate-zonal sucrose gradient centrifugation, 20 mM Tris pH 8.0; icosahedral reconstruction and localized reconstruction with 3D classification of sub-particles at the threefold axes. The settings on record: both partners purified.

Data set [3] concerns the molecule itself. The description is as above.

rotavirus triple-layered particle, non-VP4 protein components (rotavirus (strain not stated)), sequence (P12476 whole entry, looked up): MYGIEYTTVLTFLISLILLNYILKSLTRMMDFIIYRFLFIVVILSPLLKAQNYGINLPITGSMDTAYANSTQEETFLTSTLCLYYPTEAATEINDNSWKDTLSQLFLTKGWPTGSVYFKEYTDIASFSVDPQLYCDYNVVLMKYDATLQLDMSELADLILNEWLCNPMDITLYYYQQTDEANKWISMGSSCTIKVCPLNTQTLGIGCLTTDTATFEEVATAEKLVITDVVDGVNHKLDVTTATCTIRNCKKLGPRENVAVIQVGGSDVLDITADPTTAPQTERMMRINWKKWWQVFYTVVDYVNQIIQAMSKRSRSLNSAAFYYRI

Take “rotavirus viral protein VP4 (from UniProt P12473 1-776) (natural protein)”: the occupancy of VP4 in data set [1] was 60 to 70%.

B1: bacteriophage φ6 P2 RNA-dependent RNA polymerase (enzyme)
chain: PRRAPAFPLSDIKAQMLFANNIKAQQASKRSFKEGAIETYEGLLSVDPRFLSFKNELSRYLTDHFPANVDEYGRVYGNGVRTNFFGMRHMNGFPMIPATWPLASNLKKRADADLADGPVSERDNLLFRAAVRLMFSDLEPVPLKIRKGSSTCIPYFSNDMGTKIEIAERALEKAEEAGNLMLQGKFDDAYQLHQMGGAYYVVYRAQSTDAITLDPKTGKFVSKDRMVADFEYAVTGGEQGSLFAASKDASRLKEQYGIDVPDGFFCERRRTAMGGPFALNAPIMAVAQPVRNKIYSKYAYTFHHTTRLNKEEKVKEWSLCVATDVSDHDTFWPGWLRDLICDELLNMGYAPWWVKLFETSLKLPVYVGAPAPEQGHTLLGDPSNPDLEVGLSSGQGATDLMGTLLMSITYLVMQLDHTAPHLNSRIKDMPSACRFLDSYWQGHEEIRQISKSDDAILGWTKGRALVGGHRLFEMLKEGKVNPSPYMKISYEHGGAFLGDILLYDSRREPGSAIFVGNINSMLNNQFSPEYGVQSGVRDRSKRKRPFPGLAWASMKDTYGACPIYSDVLEAIERCWWNAFGESYRAYREDMLKRDTLELSRYVASMARQAGLAELTPIDLEVLADPNKLQYKWTEADVSANIHEVLMHGVSVEKTERFLRSVMPR
notes: P2, RNA-dependent RNA polymerase of bacteriophage φ6, 75 kDa, monomeric; X-ray structure PDB 1HHS was fitted into the density; also called P2 polymerase; source: self-assembled in vitro into P124 particles
In the case of B1, the “stoichiometry N” value in data set [2] was ~12 copies of P2 per particle.

Regarding B2, the binding result in data set [3] is on record as “binds”.

These data come from PMC4667630, “Localized reconstruction of subunits from electron cryomicroscopy images of macromolecular complexes” (Nature Communications, 2015).
